Results taken from patent publication US20230002496A1 (STAIDSON BEIJING BIOPHARMACEUTICALS, published 2023).

T1: human GM-CSFRα, full length on cells (human, UniProt P15509 23-400)
T1 sequence: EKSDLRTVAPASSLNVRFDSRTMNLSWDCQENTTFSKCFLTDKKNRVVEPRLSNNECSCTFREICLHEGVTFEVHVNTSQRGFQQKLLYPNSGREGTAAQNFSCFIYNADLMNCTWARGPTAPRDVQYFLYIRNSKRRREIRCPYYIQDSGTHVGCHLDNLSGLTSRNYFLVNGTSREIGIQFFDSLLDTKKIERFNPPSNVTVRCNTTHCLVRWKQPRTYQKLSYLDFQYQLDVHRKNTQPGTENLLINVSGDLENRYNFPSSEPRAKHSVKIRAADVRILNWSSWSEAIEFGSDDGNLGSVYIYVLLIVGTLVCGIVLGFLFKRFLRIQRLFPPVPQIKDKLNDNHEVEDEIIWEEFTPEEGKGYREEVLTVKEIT

T2: human GM-CSFRα-6His (human, UniProt P15509 23-320)
T2 construct: pTT5-GMRa-6his (ECD), made in 293F cells; also called GMRah; GMRa-6his(ECD)
T2 sequence: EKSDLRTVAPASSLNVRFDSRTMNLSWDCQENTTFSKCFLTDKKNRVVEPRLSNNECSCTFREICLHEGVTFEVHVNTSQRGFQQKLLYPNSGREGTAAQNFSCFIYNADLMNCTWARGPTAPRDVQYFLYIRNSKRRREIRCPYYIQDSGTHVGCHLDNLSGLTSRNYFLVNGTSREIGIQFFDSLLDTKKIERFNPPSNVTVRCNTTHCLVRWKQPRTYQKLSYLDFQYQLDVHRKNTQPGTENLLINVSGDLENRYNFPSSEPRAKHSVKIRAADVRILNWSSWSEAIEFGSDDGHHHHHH


Legend:
[1] = target: T1, human GM-CSFRα, full length on cells; experiment: cell-based or functional assay
human GM-CSFRα-6His [2] = target: T2, human GM-CSFRα-6His; experiment: ELISA on human GM-CSFRα, antibodies as human IgG1; x axis 'Log Ab concentration', no unit
human GM-CSFRα-6His [3] = target: T2, human GM-CSFRα-6His; experiment: competitive ELISA, title on the sheet 'Blocking GMRah binding to GM-CSF'; antibody (human IgG4) titrated; blocked ligand GM-CSF; x axis 'Log Ab concentration', no unit
human GM-CSFRα-6His [4] = target: T2, human GM-CSFRα-6His; experiment: ELISA on human GM-CSFRα, antibodies as human IgG1; x axis 'Log Ab concentration', no unit; remark: listed apart in the source
[5] = target: T1, human GM-CSFRα, full length on cells; experiment: cell-based or functional assay; remark: listed apart in the source
[6] = target: T1, human GM-CSFRα, full length on cells; experiment: cell-based or functional assay; remark: listed apart in the source

Row | binding result (human GM-CSFRα-6His [2]) | binding result (human GM-CSFRα-6His [3]) | Molecule | further results
1 | binds |  | E85-IgG1 (antibody, V domains shown, human IgG1, human kappa) VH: QMQLVQSGAEVKKPGASVKVSCKVSGYTLTELSIHWVRQAPGKGLEWMGGFDPEDGETIYAQKSQGRVTMTGDTSTDTAYLELSSLRSEDTALYYCATGRYSSYFTNYGFDYWGQGTLVTVSS VL: EIVMTQSPATLSLSPGERATLSCRASQSVSSYLAWYQQKPGQAPRLLIYGASSRATGIPDRFSGSGSGTDFTLTISRLEPEDFAVYYCQQYNNWPYTFGQGTKLEIK | 
2 |  | binds | E90-IgG4 (antibody, V domains shown, human IgG4, human kappa) VH: QMQLVQSGAEVKKPGASVKVSCKVSGYTLTELSIHWVRQAPGKGLEWMGGFDPEDGETIYAQKSQGRVTMTGDTSTDTAYLELSSLRSEDTALYYCATGRYTGLYASYGFDYWGQGTLVTVSS VL: EIVMTQSPATLSLSPGERATLSCRASQSVSSYLAWYQQKPGQAPRLLIYGASSRATGIPDRFSGSGSGTDFTLTISRLEPEDFAVYYCQQYDNWPYTFGQGTKLEIK | 
3 |  | binds | E94-IgG4 (antibody, V domains shown, human IgG4, human kappa) VH: QMQLVQSGAEVKKPGASVKVSCKVSGHTLTELSMHWVRQAPGKGLEWMGGFDPEDGETIYAQKFQGRVTMTGDTSTDTAYLELSSLRSEDTALYYCATGRYCETDICYGFDYWGQGTLVTVSS VL: EIVMTQSPATLSLSPGERATLSCRASQSVSSYLAWYQQKPGQAPRLLIYGASSRATGIPDRFSGSGSGTDFTLTISRLEPEDFAVYYCQQYNNWPPTFGQGTKLEIK | 
4 | binds |  | E200a-IgG1 (antibody, V domains shown, human IgG1, human kappa) VH: QMQLVQSGAEVKKPGASVKVSCKVSGYTLTELPMHWVRQAPGKGLEWMGGFDPEDGETIYAQKFQGRVTMTGDTSTDTAYLELSSLRSEDTALYYCATGRYTIITTNYGFDYWGQGTLVTVSS VL: EIVMTQSPATLSLSPGERATLSCRASQSVSSYLAWYQQKPGQAPRLLIYGASSRATGIPDRFSGSGSGTDFTLTISRLEPEDFAVYYCQQYDNWPPTFGQGTKLEIK | 
5 |  | binds | T119-IgG4 (antibody, V domains shown, human IgG4, human kappa; parent antibody) VH: QMQLVQSGAEVKKPGASVKVSCKVSGHTLTELSIHWVRQAPGKGLEWMGGFDPEDGETNYAQKSQGRVTMTGDTSTDTAYLELSSLRSEDTALYYCATGRYCSTDTCYGFDYWGQGTLVTVSS VL: EIVMTQSPATLSLSPGERATLSCRASQSVSSYLAWYQQKPGQAPRLLIYGASSRATGIPDRFSGSGSGTDFTLTISRLEPEDFAVYYCQQYNNWPPTFGQGTKLEIK | 
6 | binds |  | E113-IgG1 (antibody, V domains shown, human IgG1, human kappa) VH: QMQLVQSGAEVKKPGASVKVSCKVSGYTLTELSIHWVRQAPGKGLEWMGGFDPEDGETIYAQKSQGRVTMTGDTSTDTAYLELSSLRSEDTALYYCATGRYTELFASYGFDYWGQGTLVTVSS VL: EIVMTQSPATLSLSPGERATLSCRASQSVSSYLAWYQQKPGQAPRLLIYGASSRATGIPDRFSGSGSGTDFTLTISRLEPEDFAVYYCQQYNNWPYTFGQGTKLEIK | 
7 | binds |  | EII55-IgG1 (antibody, V domains shown, human IgG1, human kappa) VH: QMQLVQSGAEVKKPGASVKVSCKVSGYTLTELSIHWVRQAPGKGLEWMGGFDGDWHETIYAQKFQGRVTMTGDTSTDTAYLELSSLRSEDTALYYCATGRYTSLDATYGFDYWGQGTLVTVSS VL: EIVMTQSPATLSLSPGERATLSCRASQSVSSYLAWYQQKPGQAPRLLIYGASSRATGIPDRFSGSGSGTDFTLTISRLEPEDFAVYYCQQYGNRPDTFGQGTKLEIK | 
8 | binds |  | E87-IgG1 (antibody, V domains shown, human IgG1, human kappa) VH: QMQLVQSGAEVKKPGASVKVSCKVSGYTLTELSIHWVRQAPGKGLEWMGGFDPEDGETIYAQKSQGRVTMTGDTSTDTAYLELSSLRSEDTALYYCATGRYVSLFFNYGFDYWGQGTLVTVSS VL: EIVMTQSPATLSLSPGERATLSCRASQSVSSYLAWYQQKPGQAPRLLIYGASSRATGIPDRFSGSGSGTDFTLTISRLEPEDFAVYYCQQYNNWPPTFGQGTKLEIK | 
9 | binds |  | E40-IgG1 (antibody, V domains shown, human IgG1, human kappa) VH: QMQLVQSGAEVKKPGASVKVSCKVSGHTLTELSIHWVRQAPGKGLEWMGGFDPEDGETIYAQKFQGRVTMTGDTSTDTAYLELSSLRSEDTALYYCATGRYTSLDESYGFDYWGQGTLVTVSS VL: EIVMTQSPATLSLSPGERATLSCRASQSVSSYLAWYQQKPGQAPRLLIYGASSRATGIPDRFSGSGSGTDFTLTISRLEPEDFAVYYCQQYDNSPYTFGQGTKLEIK | 

Second part, the molecule before the results:

Row | Molecule | binding result (human GM-CSFRα-6His [2]) | binding result (human GM-CSFRα-6His [3]) | further results
10 | Mab-IgG4 (Mavrilimumab) (antibody) |  |  | IC50, CD11b expression on human peripheral blood cells [1]: 0.181 µg/mL; IC50, IL-1β secretion by PBMC [1]: 0.0126 µg/mL; IC50, TNFα secretion by PBMC (ELISA) [1]: 1.74 µg/mL; IC50, TNFα secretion by PBMC (Human Macrophage/Microglia Panel) [1]: 3.09 µg/mL
11 | E39-IgG1 (antibody, V domains shown, human IgG1, human kappa) VH: QMQLVQSGAEVKKPGASVKVSCKVSGHTLTELSIHWVRQAPGKGLEWMGGFDPEDGETIYAQKFQGRVTMTGDTSTDTAYLELSSLRSEDTALYYCATGRYCSSDLCYGFDYWGQGTLVTVSS VL: EIVMTQSPATLSLSPGERATLSCRASQSVSSYLAWYQQKPGQAPRLLIYGASSRATGIPDRFSGSGSGTDFTLTISRLEPEDFAVYYCQQYDNSPHTFGQGTKLEIK | binds |  | 
12 | E105-IgG1 (antibody, V domains shown, human IgG1, human kappa) VH: QMQLVQSGAEVKKPGASVKVSCKVSGYTLTELSIHWVRQAPGKGLEWMGGFDPEDGETIYAQKFQGRVTMTGDTSTDTAYLELSSLRSEDTALYYCATGRYTSLMFTYGFDYWGQGTLVTVSS VL: EIVMTQSPATLSLSPGERATLSCRASQSVSSYLAWYQQKPGQAPRLLIYGASSRATGIPDRFSGSGSGTDFTLTISRLEPEDFAVYYCQQYNNWPPTFGQGTKLEIK | binds |  | 
13 | EII52-IgG4 (antibody, V domains shown, human IgG4, human kappa) VH: QMQLVQSGAEVKKPGASVKVSCKVSGYTLTELSIHWVRQAPGKGLEWMGGFDGDIEETIYAQKFQGRVTMTGDTSTDTAYLELSSLRSEDTALYYCATGRYTSLATTYGFDYWGQGTLVTVSS VL: EIVMTQSPATLSLSPGERATLSCRASQSVSSYLAWYQQKPGQAPRLLIYGASSRATGIPDRFSGSGSGTDFTLTISRLEPEDFAVYYCQQYANPPNTFGQGTKLEIK |  | binds | 
14 | E113-IgG4 (antibody, V domains shown, human IgG4, human kappa) VH: QMQLVQSGAEVKKPGASVKVSCKVSGYTLTELSIHWVRQAPGKGLEWMGGFDPEDGETIYAQKSQGRVTMTGDTSTDTAYLELSSLRSEDTALYYCATGRYTELFASYGFDYWGQGTLVTVSS VL: EIVMTQSPATLSLSPGERATLSCRASQSVSSYLAWYQQKPGQAPRLLIYGASSRATGIPDRFSGSGSGTDFTLTISRLEPEDFAVYYCQQYNNWPYTFGQGTKLEIK |  | binds | 
15 | EII33-IgG4 (antibody, V domains shown, human IgG4, human kappa) VH: QMQLVQSGAEVKKPGASVKVSCKVSGYTLTELSIHWVRQAPGKGLEWMGGFDGDGEETIYAQKFQGRVTMTGDTSTDTAYLELSSLRSEDTALYYCATGRYTSLAATYGFDYWGQGTLVTVSS VL: EIVMTQSPATLSLSPGERATLSCRASQSVSSYLAWYQQKPGQAPRLLIYGASSRATGIPDRFSGSGSGTDFTLTISRLEPEDFAVYYCQQYRNWPFTFGQGTKLEIK |  | binds | 
16 | E200a-IgG4 (antibody, V domains shown, human IgG4, human kappa) VH: QMQLVQSGAEVKKPGASVKVSCKVSGYTLTELPMHWVRQAPGKGLEWMGGFDPEDGETIYAQKFQGRVTMTGDTSTDTAYLELSSLRSEDTALYYCATGRYTIITTNYGFDYWGQGTLVTVSS VL: EIVMTQSPATLSLSPGERATLSCRASQSVSSYLAWYQQKPGQAPRLLIYGASSRATGIPDRFSGSGSGTDFTLTISRLEPEDFAVYYCQQYDNWPPTFGQGTKLEIK |  | binds | 
17 | T119-IgG1 (antibody, V domains shown, human IgG1, human kappa; parent antibody) VH: QMQLVQSGAEVKKPGASVKVSCKVSGHTLTELSIHWVRQAPGKGLEWMGGFDPEDGETNYAQKSQGRVTMTGDTSTDTAYLELSSLRSEDTALYYCATGRYCSTDTCYGFDYWGQGTLVTVSS VL: EIVMTQSPATLSLSPGERATLSCRASQSVSSYLAWYQQKPGQAPRLLIYGASSRATGIPDRFSGSGSGTDFTLTISRLEPEDFAVYYCQQYNNWPPTFGQGTKLEIK |  |  | binding result (human GM-CSFRα-6His [4]): binds
18 | E108-IgG4 (antibody, V domains shown) VH: QMQLVQSGAEVKKPGASVKVSCKVSGHTLTELSIHWVRQAPGKGLEWMGGFDPEDGETIYAQKFQGRVTMTGDTSTDTAYLELSSLRSEDTALYYCATGRYTELYQNYGFDYWGQGTLVTVSS VL: EIVMTQSPATLSLSPGERATLSCRASQSVSSYLAWYQQKPGQAPRLLIYGASSRATGIPDRFSGSGSGTDFTLTISRLEPEDFAVYYCQQYNNWPPTFGQGTKLEIK |  |  | IC50, human granulocyte shape change [5]: 0.00207 µg/mL; IC50, human granulocyte survival [6]: 0.00552 µg/mL
